According to patent US5843746:

Experiments:
[1] = molecular target: biotinated firefly luciferase bL203 (Luciola lateralis (HEIKE firefly) luciferase fused to an artificial peptide)
[2] = molecular target: chemically modified biotinated firefly luciferase (Photinus pyralis) [luciferase: P08659]
[3] = molecular target: biotinated firefly luciferase bL248 (Luciola lateralis (HEIKE firefly) luciferase fused to a part of E. coli BCCP)

Substance: streptavidin (from UniProt P22629)
- remaining activity after mixed with streptavidin [1]: 93%
- remaining activity after mixed with streptavidin [2]: 62%
- activity maintained upon binding to streptavidin [3]: 102%
